The results in this text go back to FireProtDB (doi:10.1021/bi982078m).

For this series the following is noted: Aspergillus oryzae (strain ATCC 42149 / RIB 40), pH 3, 25 °C, Absorbance, glycine-HCl 0.05 M, reversible: yes, whole UniProt chain shown.

B1: Guanyl-specific ribonuclease T1 wild type, P00651 (protein)
chain: MMYSKLLTLTTLLLPTALALPSLVERACDYTCGSNCYSSSDVSTAQAAGYQLHEDGETVGSNSYPHKYNNYEGFDFSVSSPYYEWPILSSGDVYSGGSPGADRVVFNENNQLAGVITHTGASGNNFVECT
As for B1, the denaturant m value reads like this: (GdnHCl, KCl 0.1-1.0 M) 2.83 kcal/mol/M; (Urea, KCl 0.10 M) 1.98 kcal/mol/M; (Urea, KCl 0.50 M) 1.71 kcal/mol/M; (Urea, KCl 1.00 M) 1.59 kcal/mol/M; (Urea, KCl 1.25 M) 1.65 kcal/mol/M; (Urea, KCl 1.50 M) 1.54 kcal/mol/M. In addition, the “denaturant midpoint (higher = more stable)” value by setting is: (GdnHCl, KCl 0.1-1.0 M) 1.78 M; (Urea, KCl 0.10 M) 2.05 M; (Urea, KCl 0.50 M) 2.4 M; (Urea, KCl 1.00 M) 2.82 M; (Urea, KCl 1.25 M) 3.02 M; (Urea, KCl 1.50 M) 3.41 M. Further, the unfolding free energy amounted to 5.03 kcal/mol (GdnHCl, KCl 0.1-1.0 M); 4.07 kcal/mol (Urea, KCl 0.10 M); 4.1 kcal/mol (Urea, KCl 0.50 M); 4.49 kcal/mol (Urea, KCl 1.00 M); 4.99 kcal/mol (Urea, KCl 1.25 M); 5.26 kcal/mol (Urea, KCl 1.50 M).
